# Results reported in paper PMC3686109.
# Target: streptavidin (UniProt P22629 25-183)
# Experiment: aptamer microarray
# Chain of streptavidin (P22629 25-183): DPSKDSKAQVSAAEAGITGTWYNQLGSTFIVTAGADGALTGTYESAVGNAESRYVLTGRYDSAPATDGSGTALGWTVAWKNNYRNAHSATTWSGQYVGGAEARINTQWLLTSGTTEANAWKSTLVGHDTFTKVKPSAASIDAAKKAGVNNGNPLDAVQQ
binder,measurement,value
ATTGACCGCTGTGTGACGCAACACTCAATTTTTTTTTTTT (structured_DNA) [St-2-1_T11],binding result,binds
